Measurements as given in publication PMC13185157 (ACS Synthetic Biology, 2026).

B1: α-GFP Nb displayed as N-terminal fusion to HA-tagged Aga1ΔN181 (VHH)
VHH: QVQLVESGGALVQPGGSLRLSCAASGFPVNRYSMRWYRQAPGKEREWVAGMSSAGDRSSYEDSVKGRFTISRDDARNTVYLQMNSLKPEDTAVYYCNVNVGFEYWGQGTQVTVSS
notes: anti-GFP nanobody; Plasmid details in File S1; also called anti-GFP Nanobody; not shown: HA (of the anchor part), internal (between nanobody and anchor), kept; Aga1ΔN181 anchor (Aga1p YNR044W amino acids 182–544), C-terminal, kept
B2: α-GFP Nb displayed as N-terminal fusion to 2xFLAG-tagged Aga1ΔN181 (VHH)
VHH: QVQLVESGGALVQPGGSLRLSCAASGFPVNRYSMRWYRQAPGKEREWVAGMSSAGDRSSYEDSVKGRFTISRDDARNTVYLQMNSLKPEDTAVYYCNVNVGFEYWGQGTQVTVSS
notes: anti-GFP nanobody, as in m2; also called anti-GFP Nanobody; not shown: 2xFLAG, internal (between nanobody and anchor), kept; Aga1ΔN181 anchor (Aga1p YNR044W amino acids 182–544), C-terminal, kept
B3: α-GFP Nb displayed as N-terminal fusion to MYC-tagged Aga1ΔN181 (VHH)
VHH: QVQLVESGGALVQPGGSLRLSCAASGFPVNRYSMRWYRQAPGKEREWVAGMSSAGDRSSYEDSVKGRFTISRDDARNTVYLQMNSLKPEDTAVYYCNVNVGFEYWGQGTQVTVSS
notes: anti-GFP nanobody, as in m2; also called anti-GFP Nanobody; not shown: MYC, internal (between nanobody and anchor), kept; Aga1ΔN181 anchor (Aga1p YNR044W amino acids 182–544), C-terminal, kept
B4: α-GFP Nb displayed as C-terminal fusion to HA-tagged Aga2 (VHH)
VHH: QVQLVESGGALVQPGGSLRLSCAASGFPVNRYSMRWYRQAPGKEREWVAGMSSAGDRSSYEDSVKGRFTISRDDARNTVYLQMNSLKPEDTAVYYCNVNVGFEYWGQGTQVTVSS
notes: anti-GFP nanobody, as in m2; Held on the cell by coexpressed Aga1; also called anti-GFP Nanobody; not shown: HA, internal (after amino acid 18 of Aga2p, after the signal peptide), kept; Aga2p anchor (YGL032C), N-terminal, kept
B5: α-GFP Nb displayed as C-terminal fusion to 2xFLAG-tagged Aga2 (VHH)
VHH: QVQLVESGGALVQPGGSLRLSCAASGFPVNRYSMRWYRQAPGKEREWVAGMSSAGDRSSYEDSVKGRFTISRDDARNTVYLQMNSLKPEDTAVYYCNVNVGFEYWGQGTQVTVSS
notes: anti-GFP nanobody, as in m2; Held on the cell by coexpressed Aga1; also called anti-GFP Nanobody; not shown: 2xFLAG, internal (after amino acid 18 of Aga2p, after the signal peptide), kept; Aga2p anchor (YGL032C), N-terminal, kept
B6: α-GFP Nb displayed as C-terminal fusion to untagged Aga2 (VHH)
VHH: QVQLVESGGALVQPGGSLRLSCAASGFPVNRYSMRWYRQAPGKEREWVAGMSSAGDRSSYEDSVKGRFTISRDDARNTVYLQMNSLKPEDTAVYYCNVNVGFEYWGQGTQVTVSS
notes: anti-GFP nanobody, as in m2; also called anti-GFP Nanobody; not shown: Aga2p anchor (YGL032C), N-terminal, kept
B7: α-GFP Nb displayed as C-terminal fusion to MYC-tagged Aga2 (VHH)
VHH: QVQLVESGGALVQPGGSLRLSCAASGFPVNRYSMRWYRQAPGKEREWVAGMSSAGDRSSYEDSVKGRFTISRDDARNTVYLQMNSLKPEDTAVYYCNVNVGFEYWGQGTQVTVSS
notes: as for B6

What follows are binders tested against T1, GFP (Aequorea victoria GFP, engineered …) (assay: flow cytometry on cells; about 1 x 10^6 yeast cells displaying the α-GFP Nb in 20 mM HEPES pH 7.5, 150 mM NaCl, 0.1% BSA, 5 mM maltose; GFP from a bacterial cell lysate (20–30 μL); 15 min at 4 °C; GFP fluorescence, percent of positive cells). Settings: partners not purified.
T1 construct: green fluorescent protein expressed from pYTK001; also called green fluorescent protein; source: E. coli DH5α, constitutive expression from pYTK001, in lysate
T1 sequence (P42212 other isoform, or with tags, fused parts or gaps): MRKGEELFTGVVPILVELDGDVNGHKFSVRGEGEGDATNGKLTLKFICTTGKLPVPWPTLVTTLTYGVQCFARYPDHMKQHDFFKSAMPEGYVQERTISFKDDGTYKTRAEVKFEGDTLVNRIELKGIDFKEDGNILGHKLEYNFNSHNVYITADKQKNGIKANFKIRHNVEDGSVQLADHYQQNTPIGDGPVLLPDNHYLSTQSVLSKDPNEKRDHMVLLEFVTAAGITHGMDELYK
With B1 the “percent of cells labelled with GFP” value was over 80%. With B2 the “percent of cells labelled with GFP” value was over 80%. B3 was tested, and the “percent of cells labelled with GFP” value was over 80%. For B4, the “percent of cells labelled with GFP” value was over 60%. In the case of B5, the “percent of cells labelled with GFP” value is reported as over 60%. For B6, the “percent of cells labelled with GFP” value was over 60%. B7 was tested, and the “percent of cells labelled with GFP” value was over 60%.
